# According to a protein production outcome set (Wang et al. 2014):
# Experiment: label from the status in PepcDB records
row,Sequence,protein production
1,EDFVDPWTVQTSSAKGIDYDKLIVRFGSSKIDKELINRIERATGQRPHHFLRRGIFFSHRDMNQVLDAYENKKPFYLYTGRGPSSEAMHVGHLIPFIFTKWLQDVFNVPLVIQMTDDEKYLWKDLTLDQAYSYAVENAKDIIACGFDINKTFIFSDLDYMGMSSGFYKNVVKIQKHVTFNQVKGIFGFTDSDCIGKISFPAIQAAPSFSNSFPQIFRDRTDIQCLIPCAIDQDPYFRMTRDVAPRIGYPKPALLHSTFFPALQGAQTKMSASDPNSSIFLTDTAKQIKTKVNKHAFSGGRDTIEEHRQFGGNCDVDVSFMYLTFFLEDDDKLEQIRKDYTSGAMLTGELKKALIEVLQPLIAEHQARRKEVTDEIVKEFMTPRKLSFDFQ,not failed
2,MSVYHHILLAVDFSSEDSQVVQKVRNLASQIGARLSLIHVLDNIPMPDTPYGTAIPLDTETTYDAMLDVEKQKLSQIGNTLGIDPAHRWLVWGEPREEIIRIAEQENVDLIVVGSHGRHGLALLLGSTANSVLHYAKCDVLAVRLRDD,not failed
3,MHYHGSCHCGTIRFDVEGELTGAMSCNCSICRRKGALLWFVPRDHLRLATPDEQIATYTFNRHLIKHRFCPTCGIHTHGEGVDQQGRAMAAINIRCLDDVDLDAVAVHQYDGRAA,failed
4,MNTIIRYASLWGLCAALTLAQTPSKTPDEIKQILNNYSHKNLKLIDPPTSSLEATPSFLSSPKETATTINQEIAKYHEKSDKAALGLYELLKGATTNLSLQAQELSVKQAMKNHTIAKAMFLPTLNASYNFKNEARDTPEYKHYNTQQLQAQVTLNVFNGFSDVNNVKEKSATYRSNVANLEYSRQSVYLQVVQQYYEYFNNLARMIALQKKLEQIKTDIKRVTKLYDKGLTTIDDLQSLKAQGNLSEYDILDMQFALEQNRLTLEYLTNLSVKNLKKTTIDAPNLQLRERQDLVSLREQISAIRYQNKQLNYYPKIDVFDSWLFWIQKPAYATGRFGNFYPGQQNTAGVTATLNIFDDIGLSLQKQSIMLGQLANEKNLAYKKLEQEKDEQLYRKSLDIARAKIESSKASLDAANLSFANIKRKYDANLVDFTTYLRGLTTRFDAEVAYNLALNNYEVQKANYIFNSGHKIDDYVH,failed
5,MTIIKYIKFVVIIVIVTIVFSCSKNEAGNSEYDPSLPISLTDFFPIQGGMATRMVIEGANFGTDLSQIKVFFNQKEASILNVKNSIIYLLVPKLPGNDCIVTVKVGNQEARFTRNFQYIENYSVTTIAGQPGTNLFVEGTLAAAQFGPVQHLAIDDENNLFITERNGSDGKGTCSVLNEESGTVTFLFKASDNLNVPTVNAQTQNVYIPLDGGYTFYELNPVNQWIAKSRLVLHPSKEQQEAGMDDFEINWKHSLAFSRYDNMIYTRSYGGDLIKVDPETRVGQKIGNFFPNTDSFIVAHPTQPEILYIAYAAKHVIYTYNIETGEHKLFAGAFGQSGWNDGIATDAEFNSPRQMSLDMEGNIYIADSGNHCIRMIDKNGIVTTPIGQPGEAGYADGSPDMALLNDPRGVAVNSEGDVYIADLGNRCIRKLTLQLEHHHHHH,failed
6,MTEIALIGNPNSGKTSLFNLLTGTSQRVGNWPGVTVERKSGNVKKLKEISVQDLPGIYSMSPYSPEEKVARDYLLSNHADSILNVVDATNLERNLYLTTQLIETGIPVTIALNMSDVLKNQGKSINSDKLAYQMGVPVVATSALKNTGVDKAVKKASQTTKGSVDSVQYPTYDAKFEAAIAQIIEVLGQTVPERSSRFYAIKLFERDRLVEEELDLSPFQKKEIKDIIQITEEVFTEDSESIVINQRYAFIERVSQMAQSQDNDFKMSASDKIDKIVTNRVLALPIFAVVMFLVYYLSIQTVGTMGTDWVNDILFGKYVPEFVTGVLEALKVQAWLQSLIIDGVVAGVGTVLGFLPQIFVLFICLGILEDIGYMSRIAFVMDRIFRRFGLSGKSFIPMLISTGCGVPGIMASRTIENERDRRITIMTTTFMPCSAKLSVIALIAGAFFPHNPWIAPSAYFMGMIAIILSGIALKKTSFLGGYTSPFIMELPSYHLPKVDAVLRYAFGKAMSFVKRAGTIIFSLTVLIWFMSSYNFTLHSVDTENSILASLGRLLAWIFTPLGFGNWKATVAALTGLAAKETVVATFGILYNNPDATETTHSLWVSLQGDYTALAAYSFLTFNLLCAPCFASIGAIKREMGNLKWTLVAIAYQTGLAYLVSLIIYQLGLVAFYGKPVTLWTGLALVLLLVMLYFIIRKPRQVKEKVITLDNLSLSHN,failed
7,MLKKIREEFGCIFARDPAAQSFFEILTVYPGVHAVLIHRFSHWLWNHGLHWPARVLSYLARWATGIEIHPGATLGRRLFIDHGMGVVIGETAVIGDDCTLYHGVTLGGTSWQKGKRHPTLGNGVVVGAGAKVLGPITVGDGARIGSNSVVLRTVPAGATVVGIPGHIINPDRRAQEAQRLAIASRLGFDAYGMTPDMPDPVAHAINHMLDHIQALDQQVAKLKEVLRERGIDLEEAPLPDLDDCQLDPGEPQVTVNSSRTGLEHHHHHH,not failed
8,MQAYIDRIGDFIQANQDWAGPITFLLTFGESMVLVGLLIPATALMLLTGGLIGAGTLSPWGVLAWGIAGAIAGDAVSYALGRWLGPGVMRRWPLNTQRSAVARARLFFYRYGFASVLIGRFLGPIRSTIPTVAGIMGMHHLRFQLANVLSAVAWLPLMLAPGYITARGLGAMDNAQHIGLAAGMGASVLIGCWLLVAVMRKRRQPARANRRP,not failed
9,MFSGCVERSTRVLQDQEGDTVTSSPAGNKLPNINGLRDSNPRHSLGYRVQHRARTVVASVIVAMLVFAGTAAAATWLDVDNVIQHQKVDVIGQGSVSAEPTIIDPNSGKPIEILLLGQDSRDGEGNQAIGGDMTGNHQADTAMVLQISADRSAINLVSIPRDSLVDVPQCETSKGTIPAQYGVMFNSIFAGAYQTGGDLASAASCTLNAVNSLTGLNIQNFIVVDFAGLVKMIDAIGGVDICVPQDIDDPYSTLQLSKGMQHLDGTQATQYARTRYTLGDGSDTARTTRQQYLIKQLMSEALSKNLFTDTAQLYQLAKSALESLNISEGMADTAALVGLAMSLKNFNMSHLYTQTVPVVAAPSDPNRSVWADNADEVWAKMREGKSLFESTETNATSTDSTTTDGTTESQNTDENSGEQAQSTETPDATTGLITRADGTLIDPNTGGTVDPEDGSIHDATTGQYIGIADRYLNATVCAVPAKN,failed
10,ESEKSFRILFEKSPEGFLILDGGGNILEANPAALGMLGEEMEALQGRGVFELLQGEKIPLKEEEMNQKIERIYENRLGQEVLLETILIPAQVEGKARIFAIWRDVT,failed
11,MRETFEIGEIVTGIYKTGKYIGEVTNSRPGSYVVKVLAVLKHPVQGDLHNVKQANVPFFHERRALAFREQTNIPEQMVKKYEGEIPDYTESLKLALETQMNSFSEDDSPFAERSLETLQQLKKDYKL,not failed
12,MSLKKALFLILDQYADWEGVYLASALNQREDWSVHTVSLDPIVSSIGGFKTSVDYIIGLEPANFNLLVMIGGDSWSNDNKKLLHFVKTAFQKNIPIAAICGAVDFLAKNGLLNNHSHTGNFVYLWKDYKQYKPISSFVEKQAVRDKNLVTANGTAPIEFTNLILEMIDFDTPENIEKMMYMNRYGFYHFCDKYGNPFVEGHHHHHH,not failed
13,MLYSSDLLAIVGAGEQASLSPRRLCLFKTTTGLPLRELNFLTSILAVRMNKKRLVVVLLEKTFVYDLNTLVMLDTIDTVPNPKGLSAFSPSLEGCYLAVPASTTKGSVLVYNVMDLQSHSEIDAHRSPLAAIALSSNGMYIATGSEQGTLIRVHLVSEATKSYSFRRGTYPSTIYSLSFGPSTQLPDILIATSSSGSIHAFSLSLAINQRSKRSTSFLGSVLPDSVSDALDPAHHHVLQNAVSSGIRSYAVVRKIDKLEGTSSPSHFTSLRATVSVITYNGYFQEYTLSINNKNESLWTLEREFNLFSITTG,failed
14,MVFVWFIVAAIVTILTAIKLSNYADTIGEKSTLGGMLVGTIFLAGATSLPEITTTVSAIVLNNPDLAVGNVLGSNMFNLLILATLDLYFRRAQLFRGADTSHFFTASIGLLLAMVTLIAITLRLDVTLLGIGIDMLVLIVVYAFGMKLLSAVRNDPVPESQTIDQEDNRPVKKDVSLRHAMIGFAISAIVIMGAGTLLTVTGDEIAVVTGLGSSFVGSFLIAATTSLPEGVSVFVALRLKNINLALGSVLGSNLFNFLILGVSDILYRPGSIIAAISPVHQLTAAAVGILCLMTLYALLRPAEQSKRMYLMPSLVLIVFYFFSSYLIFVQ,failed
15,MTFTSSFHYQALPMRVSFEVGAVTKIGEELDRLGLSRALVLCTPEQKHLADLVMDHLGDRGAGIFDQARMHVPVETADRARDRARKLGADSCVVIGGGSSIGLGKAIALEHGLPIIAIPTTYAGSEMTPIWGLTRDGRKQTGRDAKVLPQSVIYDPQLTATLPAEISAASGLNAVAHAVEALYAPDASPIISLMAEEGVRAFAESLPAVVADGNDLDARSKALYGAWLCGACLGATTMSLHHKLCHVLGGSLDLPHAQTHAIVLPHVLGYNESHAPAARAALQRALGTDGDPSTALWELEQQLQIPHSLEELGVRETQLPAVIDEVLSNPYSNPTPVTEDGLRHLLGQALRGDRPTRR,failed
16,MLVGNYDATLVLTSLFVAILASYTALGMAGRVAASRGVAARVWLGGGAFAMGLGIWSMHFIGMLAFSLPIPLGYDVALTVASMALAVACSAFALWVVTRATLPWRRLAGAAALMGTGIAAMHYTGMAAMRMHPAIEYSPALFMLSVAVAIVASGAALWITHALRHNRPGAPAYRICAAIVMGLAIVGMHYTGMAAANFPQGSVCMAANSGISAGWLAVSTAAVTLAVLAVALVVAVLDTRLETRTSALNASLAQANEELVQMALHDTLTKLPNRALLDERLKQAIIRATAAGRGFSLLFIDLDGFKAINDAYGHGAGDLLLVEMAQRIKRAMRPQDCVARLGGDEFVVLADLPDPNDAAGLAERLIDTLTVPAEVQGHEVSVAASIGIALFPGDGADASTLLAHADAAMYHAKRLSQTHRVSFFEPSMNEDALEQLQLLQDLRLALPRNQLELHYQPKFVAPAGPVVGAEALLRWNHPTRGVIGPTVFIPIAERTGLIFSIGAWVLDEACRQMRQWRDMGHADWTVAVNLSSLQFSQPDLIDSIRATLARHDLPPRCLAIEITESTAMRDAEASLTVLRELAELGVSISIDDFGTGYSSLLYLKRLPATELKIDRGFVNQLEHDNEDAAIVSAIIALGQKLNLKIVAEGVETLAQQSFLTEMGCDSLQGFLLGRPLPAAEFLAHTLQPQLA,failed
17,MSDLGAYIHAVETASSASALREAVIQLAQQNSTAAIPTLIAVLGYNNPAAAQAAVEGLIALGDAVVEPLLAQLDGYNYGARAYGVRVLGSIGHPAALQVLLAAAQSDFAPSVRRAATKALGTLRWQLIPEETVREAQLKEALAVLQRNSKAADWAVRYAVGVALDYLHQQAAARGIREAVRSLLNHLSDRDPDIVVRSRCQLALQRDSLSMHT,failed
18,MGPIGAEADENQTVEEMKVEQYGPQTTPRGELVPDPEPELIDSTKLIEVQVVLILAYCSIILLGVIGNSLVIHVVIKFKSMRTVTNFFIANLAVADLLVNTLCLPFTLTYTLMGEWKMGPVLCHLVPYAQGLAVQVSTITLTVIALDRHRCIVYHLESKISKRISFLIIGLAWGISALLASPLAIFREYSLIEIIPDFEIVACTEKWPGEEKSIYGTVYSLSSLLILYVLPLGIISFSYTRIWSKLKNHVSPGAANDHYHQRRQKTTKMLVCVVVVFAVSWLPLHAFQLAVDIDSQVLDLKEYKLIFTVFHIIAMCSTFANPLLYGWMNSNYRKAFLSAFRCEQRLDAIHSEVSVTFKAKKNLEVRKNSGPNDSFTEATNV,failed
19,MSTVEKIQTFIILFAVTCGIVLGQFHLIHMYSEQFIVPFLFFMLYGLFLSIPLKEIKNGFRNLKFAGTSLTINFLWTPLLAWGLGALFLSDHPALWVGFIMLMVTPCTDWYLIFTEIAKGNVALSTAILPVNLILQVLLLPIYLFLFAGVMKTVAVSVLVESIVIVIVLPFLLAHATKFIMNKLKKAETLENKLIPFFSSAQIVFLSLAIVAMFASQGKYLLQNMNVVLLLLIPVLLFFIINFVLGQFIGRVMRLSYKDTVSLNLTTLARNSPVALAIAVTAFPNEPLIALALVIGPLIELPVLACVSQVLLLIKKKKQYT,failed
